Substrate: CO
Experiment: initial rates of FAME formation in PTFE microreactor, GC; non-linear regression
Assay type: biochemical, Thermomyces lanuginosus
Details: transesterification, co-substrate sunflower oil (fatty acids constant; printed 1,488.15 mg/L), 40 °C, 0.01 mol/L potassium phosphate pH 7.4, double-substrate Michaelis-Menten, methanol range printed a

B1: lipase from Thermomyces lanuginosus (Lipolase 100L; Lipolase L100; TlL) (Thermomyces lanuginosus) (protein)
chain: EVSQDLFNQFNLFAQYSAAAYCGKNNDAPAGTNITCTGNACPEVEKADATFLYSFEDSGVGDVTGFLALDNTNKLIVLSFRGSRSIENWIGNLNFDLKEINDICSGCRGHDGFTSSWRSVADTLRQKVEDAVREHPDYRVVFTGHSLGGALATVAGADLRGNGYDIDVFSYGAPRVGNRAFAEFLTVQTGGTLYRITHTNDIVPRLPPREFGYSHSSPEYWIKSGTLVPVTRNDIVKIEGIDATGGNNQPNIPDIPAHLWYFGLIGTCL
notes: commercial liquid preparation Lipolase 100L (Sigma-Aldrich), free enzyme in phosphate buffer; mass 33,400 g/mol used for calculations (cited)
Km: 7.56 ± 2.77 mg/mL
